# Tests used:
# [1] = molecular target: T1, GRF4 (Homo sapiens, UniProt Q9Y4G8, DEL134-254); test: Activation of Ras and MAPK by cNMP analogues in GRF4-transfected HEK-293T cells; format: cell-based; settings: HEK-293T cells
# T1 construct: Flag, HA or myc tags was added to the N-terminus of full length GRF4 using PCR; expressed in transfected cells; host or cells: HEK-293T
# T1 sequence (Q9Y4G8 with tags, fused parts or gaps DEL134-254): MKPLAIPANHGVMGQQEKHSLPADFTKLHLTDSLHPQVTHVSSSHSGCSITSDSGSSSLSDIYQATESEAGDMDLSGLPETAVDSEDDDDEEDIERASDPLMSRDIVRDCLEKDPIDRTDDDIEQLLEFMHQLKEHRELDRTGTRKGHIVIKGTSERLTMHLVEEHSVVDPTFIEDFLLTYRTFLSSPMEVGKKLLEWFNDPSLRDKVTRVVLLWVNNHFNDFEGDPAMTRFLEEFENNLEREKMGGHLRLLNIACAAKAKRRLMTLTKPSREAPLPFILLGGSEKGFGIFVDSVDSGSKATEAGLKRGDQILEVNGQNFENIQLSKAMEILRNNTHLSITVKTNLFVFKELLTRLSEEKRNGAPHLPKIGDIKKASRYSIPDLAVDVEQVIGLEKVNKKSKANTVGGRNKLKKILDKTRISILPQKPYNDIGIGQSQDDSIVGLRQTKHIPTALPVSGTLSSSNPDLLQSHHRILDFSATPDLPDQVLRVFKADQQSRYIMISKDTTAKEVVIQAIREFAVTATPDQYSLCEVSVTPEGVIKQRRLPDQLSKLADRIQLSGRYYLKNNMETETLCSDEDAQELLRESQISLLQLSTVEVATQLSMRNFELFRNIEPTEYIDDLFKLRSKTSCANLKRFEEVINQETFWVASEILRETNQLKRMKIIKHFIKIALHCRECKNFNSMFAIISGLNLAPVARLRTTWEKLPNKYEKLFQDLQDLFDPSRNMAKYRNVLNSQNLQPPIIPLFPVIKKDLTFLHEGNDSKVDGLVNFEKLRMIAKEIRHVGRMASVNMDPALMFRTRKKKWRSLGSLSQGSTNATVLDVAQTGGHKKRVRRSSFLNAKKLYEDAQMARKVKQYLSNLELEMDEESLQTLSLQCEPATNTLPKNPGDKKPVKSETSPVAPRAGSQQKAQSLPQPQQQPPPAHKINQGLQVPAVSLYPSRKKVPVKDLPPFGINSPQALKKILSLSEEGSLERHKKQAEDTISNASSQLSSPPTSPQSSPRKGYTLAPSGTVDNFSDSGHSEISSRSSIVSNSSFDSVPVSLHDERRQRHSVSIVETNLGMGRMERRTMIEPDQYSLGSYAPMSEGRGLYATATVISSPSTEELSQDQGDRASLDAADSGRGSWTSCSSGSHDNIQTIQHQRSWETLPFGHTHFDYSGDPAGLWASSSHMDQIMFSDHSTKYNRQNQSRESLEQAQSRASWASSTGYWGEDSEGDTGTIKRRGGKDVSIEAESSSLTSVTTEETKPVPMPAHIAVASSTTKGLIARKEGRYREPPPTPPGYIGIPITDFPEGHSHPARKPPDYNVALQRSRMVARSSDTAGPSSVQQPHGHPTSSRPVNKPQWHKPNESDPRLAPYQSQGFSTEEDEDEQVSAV
# Method: The small GTPase Ras controls the MAPK pathway and exerts its effects on cellular processes primarily through this pathway. MAPK is a downstream kinase of Ras and thus, Ras activation leads to MAPK activation (FIG. 6A). Therefore, we show the GRF4 effects on MAPK activation using assays in which levels of active MAPK in cells is determined using antibodies recognizing phosphorylated (active) MAPK.
# [2] = test system: Ras; test: Ras activation assay in living cells, GRF4 and deletion mutants expressed in HEK-293T cells; format: cell-based, human; settings: HEK-293T cells treated with 8-Br-cAMP
# Method: HEK-293T cells were transfected with vector alone, GRF4 (WT), GRF4 lacking its cNMP-BD (ΔcNMP-BD) or its CDC25 domain (ΔCDC25), and then treated (or not) with 8-Br-cAMP. Cell lysates were then incubated with GST-Raf1-RBD to precipitate active Ras, and immunobloited with anti Ras antibodies as above (upper panel). Lower panels are controls for total endogenous Ras and transfected GRF4 or its mutants.
# Flag, HA or myc tags was added to the N-terminus of full length GRF4 using PCR, and subcloned into the mammalian expression vector pCMV5 (Invitrogen). Mutants GRF4 with deletion of the CDC25 domain (residue 711-1007, GRF4DCDC25 or DCDC25 for short), the cNMP-BD (residue 134-254, DcNMP-BD), the PLPF motif in the PDZ domain (residue 396-399, -PLPF), or bearing mutations in the PDZ-binding motif (SAV to AAA), were generated using PCR. The GST-GRF4-cNMP-BD (residue 101-303) and GST-Carboxy-terminus (residue 1348-1499) were PCR-generated and cloned into pGEX-2T ( Pharmacia). The latter construct was used to generate a fusion protein (GST-GRF4C terminus) which was used to immunize rabbits for the generation of polyclonal anti GRF4 antibodies.
# HEK-293T cells were transfected as above, serum starved overnight and then subjected to various treatments, as described in the text. […] GTP in the lysates was determined using activation specific probes as described. Briefly, to determined the levels of active Ras (Ras-GTP) in cell, sepharose-bound GST fusion protein of the Ras-binding domain (RBD) of Raf-1 (GST-Raf1-RBD; Upstate Biotechnology Inc.) was used to precipitate Ras-GTP from cell lysates, and the amount of Ras-GTP determined by immunoblotting with anti Ras antibodies (Quality Biotech). Similarly, to determine the level of Rap1-GTP in cell lysates, sepharose-bound GST fusion proteins of the Rap1-binding domain of RaIGDS (GST-RaIGDS-RBD) were used to precipitate Rap1-GTP, which was then detected on a Western blot using anti-Rap1 antibodies (Transduction Lab).
molecule,measurement,setting,value
ΔcNMP-BD: Mutant GRF4 with deletion of the cNMP-BD (residue 134-254) (protein) MKPLAIPANHGVMGQQEKHSLPADFTKLHLTDSLHPQVTHVSSSHSGCSITSDSGSSSLSDIYQATESEAGDMDLSGLPETAVDSEDDDDEEDIERASDPLMSRDIVRDCLEKDPIDRTDDDIEQLLEFMHQLKEHRELDRTGTRKGHIVIKGTSERLTMHLVEEHSVVDPTFIEDFLLTYRTFLSSPMEVGKKLLEWFNDPSLRDKVTRVVLLWVNNHFNDFEGDPAMTRFLEEFENNLEREKMGGHLRLLNIACAAKAKRRLMTLTKPSREAPLPFILLGGSEKGFGIFVDSVDSGSKATEAGLKRGDQILEVNGQNFENIQLSKAMEILRNNTHLSITVKTNLFVFKELLTRLSEEKRNGAPHLPKIGDIKKASRYSIPDLAVDVEQVIGLEKVNKKSKANTVGGRNKLKKILDKTRISILPQKPYNDIGIGQSQDDSIVGLRQTKHIPTALPVSGTLSSSNPDLLQSHHRILDFSATPDLPDQVLRVFKADQQSRYIMISKDTTAKEVVIQAIREFAVTATPDQYSLCEVSVTPEGVIKQRRLPDQLSKLADRIQLSGRYYLKNNMETETLCSDEDAQELLRESQISLLQLSTVEVATQLSMRNFELFRNIEPTEYIDDLFKLRSKTSCANLKRFEEVINQETFWVASEILRETNQLKRMKIIKHFIKIALHCRECKNFNSMFAIISGLNLAPVARLRTTWEKLPNKYEKLFQDLQDLFDPSRNMAKYRNVLNSQNLQPPIIPLFPVIKKDLTFLHEGNDSKVDGLVNFEKLRMIAKEIRHVGRMASVNMDPALMFRTRKKKWRSLGSLSQGSTNATVLDVAQTGGHKKRVRRSSFLNAKKLYEDAQMARKVKQYLSNLELEMDEESLQTLSLQCEPATNTLPKNPGDKKPVKSETSPVAPRAGSQQKAQSLPQPQQQPPPAHKINQGLQVPAVSLYPSRKKVPVKDLPPFGINSPQALKKILSLSEEGSLERHKKQAEDTISNASSQLSSPPTSPQSSPRKGYTLAPSGTVDNFSDSGHSEISSRSSIVSNSSFDSVPVSLHDERRQRHSVSIVETNLGMGRMERRTMIEPDQYSLGSYAPMSEGRGLYATATVISSPSTEELSQDQGDRASLDAADSGRGSWTSCSSGSHDNIQTIQHQRSWETLPFGHTHFDYSGDPAGLWASSSHMDQIMFSDHSTKYNRQNQSRESLEQAQSRASWASSTGYWGEDSEGDTGTIKRRGGKDVSIEAESSSLTSVTTEETKPVPMPAHIAVASSTTKGLIARKEGRYREPPPTPPGYIGIPITDFPEGHSHPARKPPDYNVALQRSRMVARSSDTAGPSSVQQPHGHPTSSRPVNKPQWHKPNESDPRLAPYQSQGFSTEEDEDEQVSAV,Activation of Ras and MAPK by the expressed mutant,[1],constitutively
same,"8-Br-cAMP-mediated activation of Ras via the construct, compared with wt-GRF4",[2],almost abolished
